Inhibition of pneumococcal adherence to fibronectin data for one substance are collected here from patent EP0912608B1.

The target of the experiment is Fibronectin from human plasma (human) (UniProt P02751). As to the kind of experiment: cell-based or functional assay.
UniProt P02751, sequence (P02751 other isoform, or with tags, fused parts or gaps limits assumed): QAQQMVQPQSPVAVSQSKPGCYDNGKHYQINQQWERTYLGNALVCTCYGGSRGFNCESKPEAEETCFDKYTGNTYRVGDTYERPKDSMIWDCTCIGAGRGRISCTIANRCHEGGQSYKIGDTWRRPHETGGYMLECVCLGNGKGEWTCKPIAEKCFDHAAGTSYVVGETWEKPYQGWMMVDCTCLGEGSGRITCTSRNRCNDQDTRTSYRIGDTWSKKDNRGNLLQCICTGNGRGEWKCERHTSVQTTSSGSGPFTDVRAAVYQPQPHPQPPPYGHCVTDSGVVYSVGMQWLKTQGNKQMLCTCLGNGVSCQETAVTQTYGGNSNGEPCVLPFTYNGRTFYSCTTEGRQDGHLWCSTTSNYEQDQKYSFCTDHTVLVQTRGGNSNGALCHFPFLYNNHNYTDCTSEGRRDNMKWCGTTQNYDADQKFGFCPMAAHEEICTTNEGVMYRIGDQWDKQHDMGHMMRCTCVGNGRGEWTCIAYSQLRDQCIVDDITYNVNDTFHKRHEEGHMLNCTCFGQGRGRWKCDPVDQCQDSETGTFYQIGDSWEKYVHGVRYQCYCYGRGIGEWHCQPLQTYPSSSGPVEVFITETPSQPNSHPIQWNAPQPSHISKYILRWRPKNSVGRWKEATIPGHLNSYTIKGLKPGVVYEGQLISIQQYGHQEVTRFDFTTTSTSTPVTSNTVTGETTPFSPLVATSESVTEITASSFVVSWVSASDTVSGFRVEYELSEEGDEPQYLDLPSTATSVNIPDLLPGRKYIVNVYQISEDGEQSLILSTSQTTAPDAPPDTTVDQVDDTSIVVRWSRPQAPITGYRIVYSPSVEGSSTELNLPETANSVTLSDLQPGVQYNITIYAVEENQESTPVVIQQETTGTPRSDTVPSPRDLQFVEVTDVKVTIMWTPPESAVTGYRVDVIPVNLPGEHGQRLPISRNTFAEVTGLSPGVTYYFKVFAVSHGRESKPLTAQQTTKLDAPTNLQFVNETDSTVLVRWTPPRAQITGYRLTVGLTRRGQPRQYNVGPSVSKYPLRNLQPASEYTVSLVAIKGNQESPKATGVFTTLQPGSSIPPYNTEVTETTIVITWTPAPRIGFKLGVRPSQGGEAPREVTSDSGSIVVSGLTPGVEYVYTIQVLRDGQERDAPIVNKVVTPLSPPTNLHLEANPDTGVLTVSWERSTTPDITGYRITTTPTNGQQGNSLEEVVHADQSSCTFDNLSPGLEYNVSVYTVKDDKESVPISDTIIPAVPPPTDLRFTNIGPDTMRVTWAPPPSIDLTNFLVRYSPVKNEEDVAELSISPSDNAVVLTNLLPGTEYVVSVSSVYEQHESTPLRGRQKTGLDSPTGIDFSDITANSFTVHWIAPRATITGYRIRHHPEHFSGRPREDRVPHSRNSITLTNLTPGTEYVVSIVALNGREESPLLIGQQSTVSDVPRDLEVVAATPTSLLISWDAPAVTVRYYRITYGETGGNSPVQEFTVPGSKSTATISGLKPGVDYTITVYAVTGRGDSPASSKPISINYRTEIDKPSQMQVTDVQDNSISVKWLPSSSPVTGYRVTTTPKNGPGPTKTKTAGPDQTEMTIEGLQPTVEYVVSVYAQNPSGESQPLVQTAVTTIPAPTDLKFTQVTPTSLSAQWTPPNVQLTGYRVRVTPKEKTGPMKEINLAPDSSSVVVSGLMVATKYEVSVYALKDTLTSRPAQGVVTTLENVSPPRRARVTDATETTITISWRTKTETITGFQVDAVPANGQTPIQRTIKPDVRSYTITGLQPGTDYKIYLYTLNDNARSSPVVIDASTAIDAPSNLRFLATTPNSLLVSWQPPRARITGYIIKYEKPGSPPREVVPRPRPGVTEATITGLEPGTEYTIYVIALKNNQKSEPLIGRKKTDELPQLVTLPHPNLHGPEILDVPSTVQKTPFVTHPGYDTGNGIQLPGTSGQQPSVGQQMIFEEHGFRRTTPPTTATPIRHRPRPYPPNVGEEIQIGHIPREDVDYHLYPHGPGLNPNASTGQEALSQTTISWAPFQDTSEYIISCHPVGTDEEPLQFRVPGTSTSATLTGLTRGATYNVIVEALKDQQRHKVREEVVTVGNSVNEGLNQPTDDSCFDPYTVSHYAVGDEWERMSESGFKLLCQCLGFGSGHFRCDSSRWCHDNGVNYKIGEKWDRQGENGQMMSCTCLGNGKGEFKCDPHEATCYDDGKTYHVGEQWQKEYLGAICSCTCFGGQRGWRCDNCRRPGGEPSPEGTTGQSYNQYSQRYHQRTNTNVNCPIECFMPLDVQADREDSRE

For “yeast enolase (Sigma) (from UniProt P00924 2-437) (enzyme)”, the inhibition of pneumococcal adherence to fibronectin is 98%.
